Measured values: doi:10.1101/538884 (bioRxiv, 2019)

Biological target: the molecule itself
Experiment: SEC

B1: HEV^440-691 (hepatitis E virus ORF1 residues 440-691) (domain or fragment, Hepatitis E virus (HEV), UniProt P33424 440-691, looked up)
chain: AGFHLDPRVLVFDESAPCHCRTAIRKAVSKFCCFMKWLGQECTCFLQPAEGVVGDQGHDNEAYEGSDVDPAESAISDISGSYVVPGTALQPLYQALDLPAEIVARAGRLTATVKVSQVDGRIDCETLLGNKTFRTSFVDGAVLETNGPERHNLSFDASQSTMAAGPFSLTYAASAAGLEVRYVAAGLDHRAVFAPGVSPRSAPGEVTAFCSALYRFNREAQRLSLTGNFWFHPEGLLGPFAPFSPGHVWESA
**Q.** Does B1 bind?
**A.** binds
